Test results taken from patent US20140023630A1 (REGENTS OF THE UNIVERSITY OF COLORADO A BODY CORPORATE, published 2014).

B1: human CBS deletion mutant Δ544-551 (enzyme)
chain: MPSETPQAEVGPTGCPHRSGPHSAKGSLEKGSPEDKEAKEPLWIRPDAPSRCTWQLGRPASESPHHHTAPAKSPKILPDILKKIGDTPMVRINKIGKKFGLKCELLAKCEFFNAGGSVKDRISLRMIEDAERDGTLKPGDTIIEPTSGNTGIGLALAAAVRGYRCIIVMPEKMSSEKVDVLRALGAEIVRTPTNARFDSPESHVGVAWRLKNEIPNSHILDQYRNASNPLAHYDTTADEILQQCDGKLDMLVASVGTGGTITGIARKLKEKCPGCRIIGVDPEGSILAEPEELNQTEQTTYEVEGIGYDFIPTVLDRTVVDKWFKSNDEEAFTFARMLIAQEGLLCGGSAGSTVAVAVKAAQELQEGQRCVVILPDSVRNYMTKFLSDRWMLQKGFLKEEDLTEKKPWWWHLRVQELGLSAPLTVLPTITCGHTIEILREKGFDQAPVVDEAGVILGMVTLGNMLSSLLAGKVQPSDQVGKVIYKQFKQIRLTDTLGRLSHILEMDHFALVVHEQIQYHSTGKSSQRQMVFGVVTAIDLLNFV
notes: No fusion partner, E. coli lysate; Reported as a tetramer
B2: human CBS deletion mutant Δ489-551 (enzyme)
chain: MPSETPQAEVGPTGCPHRSGPHSAKGSLEKGSPEDKEAKEPLWIRPDAPSRCTWQLGRPASESPHHHTAPAKSPKILPDILKKIGDTPMVRINKIGKKFGLKCELLAKCEFFNAGGSVKDRISLRMIEDAERDGTLKPGDTIIEPTSGNTGIGLALAAAVRGYRCIIVMPEKMSSEKVDVLRALGAEIVRTPTNARFDSPESHVGVAWRLKNEIPNSHILDQYRNASNPLAHYDTTADEILQQCDGKLDMLVASVGTGGTITGIARKLKEKCPGCRIIGVDPEGSILAEPEELNQTEQTTYEVEGIGYDFIPTVLDRTVVDKWFKSNDEEAFTFARMLIAQEGLLCGGSAGSTVAVAVKAAQELQEGQRCVVILPDSVRNYMTKFLSDRWMLQKGFLKEEDLTEKKPWWWHLRVQELGLSAPLTVLPTITCGHTIEILREKGFDQAPVVDEAGVILGMVTLGNMLSSLLAGKVQPSDQVGKVIYKQFK
notes: No fusion partner, E. coli lysate; Reported as a dimer
B3: human CBS deletion mutant Δ442-551 (enzyme)
chain: MPSETPQAEVGPTGCPHRSGPHSAKGSLEKGSPEDKEAKEPLWIRPDAPSRCTWQLGRPASESPHHHTAPAKSPKILPDILKKIGDTPMVRINKIGKKFGLKCELLAKCEFFNAGGSVKDRISLRMIEDAERDGTLKPGDTIIEPTSGNTGIGLALAAAVRGYRCIIVMPEKMSSEKVDVLRALGAEIVRTPTNARFDSPESHVGVAWRLKNEIPNSHILDQYRNASNPLAHYDTTADEILQQCDGKLDMLVASVGTGGTITGIARKLKEKCPGCRIIGVDPEGSILAEPEELNQTEQTTYEVEGIGYDFIPTVLDRTVVDKWFKSNDEEAFTFARMLIAQEGLLCGGSAGSTVAVAVKAAQELQEGQRCVVILPDSVRNYMTKFLSDRWMLQKGFLKEEDLTEKKPWWWHLRVQELGLSAPLTVLPTITCGHTIEILREK
notes: as for B2
B4: human CBS double deletion mutant Δ1-70 Δ401-551 (expressed without fusion partner) (enzyme)
chain: AKSPKILPDILKKIGDTPMVRINKIGKKFGLKCELLAKCEFFNAGGSVKDRISLRMIEDAERDGTLKPGDTIIEPTSGNTGIGLALAAAVRGYRCIIVMPEKMSSEKVDVLRALGAEIVRTPTNARFDSPESHVGVAWRLKNEIPNSHILDQYRNASNPLAHYDTTADEILQQCDGKLDMLVASVGTGGTITGIARKLKEKCPGCRIIGVDPEGSILAEPEELNQTEQTTYEVEGIGYDFIPTVLDRTVVDKWFKSNDEEAFTFARMLIAQEGLLCGGSAGSTVAVAVKAAQELQEGQRCVVILPDSVRNYMTKFLSDRWMLQKGFLKEE
notes: pKK construct; E. coli lysate; Reported as a dimer; also called CBS DD
B5: human CBS deletion mutant Δ1-39 (enzyme)
chain: EPLWIRPDAPSRCTWQLGRPASESPHHHTAPAKSPKILPDILKKIGDTPMVRINKIGKKFGLKCELLAKCEFFNAGGSVKDRISLRMIEDAERDGTLKPGDTIIEPTSGNTGIGLALAAAVRGYRCIIVMPEKMSSEKVDVLRALGAEIVRTPTNARFDSPESHVGVAWRLKNEIPNSHILDQYRNASNPLAHYDTTADEILQQCDGKLDMLVASVGTGGTITGIARKLKEKCPGCRIIGVDPEGSILAEPEELNQTEQTTYEVEGIGYDFIPTVLDRTVVDKWFKSNDEEAFTFARMLIAQEGLLCGGSAGSTVAVAVKAAQELQEGQRCVVILPDSVRNYMTKFLSDRWMLQKGFLKEEDLTEKKPWWWHLRVQELGLSAPLTVLPTITCGHTIEILREKGFDQAPVVDEAGVILGMVTLGNMLSSLLAGKVQPSDQVGKVIYKQFKQIRLTDTLGRLSHILEMDHFALVVHEQIQYHSTGKSSQRQMVFGVVTAIDLLNFVAAQERDQK
notes: The sense primer brings in an Nco I site at the 5' end; No fusion partner, E. coli lysate; Reported as a tetramer; also called pKK CBS Δ1-39
B6: human CBS deletion mutant Δ414-551 (enzyme)
chain: MPSETPQAEVGPTGCPHRSGPHSAKGSLEKGSPEDKEAKEPLWIRPDAPSRCTWQLGRPASESPHHHTAPAKSPKILPDILKKIGDTPMVRINKIGKKFGLKCELLAKCEFFNAGGSVKDRISLRMIEDAERDGTLKPGDTIIEPTSGNTGIGLALAAAVRGYRCIIVMPEKMSSEKVDVLRALGAEIVRTPTNARFDSPESHVGVAWRLKNEIPNSHILDQYRNASNPLAHYDTTADEILQQCDGKLDMLVASVGTGGTITGIARKLKEKCPGCRIIGVDPEGSILAEPEELNQTEQTTYEVEGIGYDFIPTVLDRTVVDKWFKSNDEEAFTFARMLIAQEGLLCGGSAGSTVAVAVKAAQELQEGQRCVVILPDSVRNYMTKFLSDRWMLQKGFLKEEDLTEKKPWWWHLR
notes: Lacks the entire C-terminal regulatory region; No fusion partner, E. coli lysate; Reported as a dimer
B7: human CBS deletion mutant Δ497-551 (enzyme)
chain: MPSETPQAEVGPTGCPHRSGPHSAKGSLEKGSPEDKEAKEPLWIRPDAPSRCTWQLGRPASESPHHHTAPAKSPKILPDILKKIGDTPMVRINKIGKKFGLKCELLAKCEFFNAGGSVKDRISLRMIEDAERDGTLKPGDTIIEPTSGNTGIGLALAAAVRGYRCIIVMPEKMSSEKVDVLRALGAEIVRTPTNARFDSPESHVGVAWRLKNEIPNSHILDQYRNASNPLAHYDTTADEILQQCDGKLDMLVASVGTGGTITGIARKLKEKCPGCRIIGVDPEGSILAEPEELNQTEQTTYEVEGIGYDFIPTVLDRTVVDKWFKSNDEEAFTFARMLIAQEGLLCGGSAGSTVAVAVKAAQELQEGQRCVVILPDSVRNYMTKFLSDRWMLQKGFLKEEDLTEKKPWWWHLRVQELGLSAPLTVLPTITCGHTIEILREKGFDQAPVVDEAGVILGMVTLGNMLSSLLAGKVQPSDQVGKVIYKQFKQIRLTDTL
notes: as for B2
B8: human CBS deletion mutant Δ1-70 (enzyme)
chain: AKSPKILPDILKKIGDTPMVRINKIGKKFGLKCELLAKCEFFNAGGSVKDRISLRMIEDAERDGTLKPGDTIIEPTSGNTGIGLALAAAVRGYRCIIVMPEKMSSEKVDVLRALGAEIVRTPTNARFDSPESHVGVAWRLKNEIPNSHILDQYRNASNPLAHYDTTADEILQQCDGKLDMLVASVGTGGTITGIARKLKEKCPGCRIIGVDPEGSILAEPEELNQTEQTTYEVEGIGYDFIPTVLDRTVVDKWFKSNDEEAFTFARMLIAQEGLLCGGSAGSTVAVAVKAAQELQEGQRCVVILPDSVRNYMTKFLSDRWMLQKGFLKEEDLTEKKPWWWHLRVQELGLSAPLTVLPTITCGHTIEILREKGFDQAPVVDEAGVILGMVTLGNMLSSLLAGKVQPSDQVGKVIYKQFKQIRLTDTLGRLSHILEMDHFALVVHEQIQYHSTGKSSQRQMVFGVVTAIDLLNFVAAQERDQK
notes: The sense primer brings in an Nco I site at the 5' end; No fusion partner, E. coli lysate; Reported as a tetramer; also called pKK CBS Δ1-70
B9: human CBS deletion mutant Δ551 (enzyme)
chain: MPSETPQAEVGPTGCPHRSGPHSAKGSLEKGSPEDKEAKEPLWIRPDAPSRCTWQLGRPASESPHHHTAPAKSPKILPDILKKIGDTPMVRINKIGKKFGLKCELLAKCEFFNAGGSVKDRISLRMIEDAERDGTLKPGDTIIEPTSGNTGIGLALAAAVRGYRCIIVMPEKMSSEKVDVLRALGAEIVRTPTNARFDSPESHVGVAWRLKNEIPNSHILDQYRNASNPLAHYDTTADEILQQCDGKLDMLVASVGTGGTITGIARKLKEKCPGCRIIGVDPEGSILAEPEELNQTEQTTYEVEGIGYDFIPTVLDRTVVDKWFKSNDEEAFTFARMLIAQEGLLCGGSAGSTVAVAVKAAQELQEGQRCVVILPDSVRNYMTKFLSDRWMLQKGFLKEEDLTEKKPWWWHLRVQELGLSAPLTVLPTITCGHTIEILREKGFDQAPVVDEAGVILGMVTLGNMLSSLLAGKVQPSDQVGKVIYKQFKQIRLTDTLGRLSHILEMDHFALVVHEQIQYHSTGKSSQRQMVFGVVTAIDLLNFVAAQERDQ
notes: Lacks the C-terminal lysine; No fusion partner, E. coli lysate; Reported as a tetramer; also called pKK CBS Δ551

Target: the molecule itself
Test: self-association; native PAGE and Western blot of E. coli lysate soluble fraction
Procedure: Western blot analysis of crude cell lysates under both denaturing and native conditions was performed as described previously (Janosik, 2001, supra) with some modifications. Soluble fractions of E. coli lysates containing the expressed mutant proteins were mixed with sample buffer and run on a 6% native PAGE without a stacking gel. The final composition of the sample buffer was: 50 mM Tris-HCl, pH 8.9, 1 mM DTT, 10% glycerol, 0.001% bromphenol blue. Detection of heme was performed using a previously described method that relies on heme peroxidase activity (Vargas et al., 1993, Anal. Biochem. 209(2), 323-6).

Does B1 bind?
Result: binds

Does B2 bind?
Result: binds

Does B3 bind?
Result: binds

Does B4 bind?
Result: binds

Does B5 bind?
Result: binds

Does B6 bind?
Result: binds

Does B7 bind?
Result: binds

Does B8 bind?
Result: binds

Does B9 bind?
Result: binds
